Results on one molecule are retold here after publication PMC11730255 (Molecular Therapy Oncology, 2024).

For this test, the target named is T1, rhB7-H6 biotinylated Fc fusion protein (human, UniProt Q68D85 25-262, biotin).
T1 construct: B7-H6 (natural cytotoxicity triggering receptor 3 ligand 1), human; supplier named under library sorting; the BLI methods say only 'B7-H6'; source: bought: R&D Systems
T1 sequence (looked up): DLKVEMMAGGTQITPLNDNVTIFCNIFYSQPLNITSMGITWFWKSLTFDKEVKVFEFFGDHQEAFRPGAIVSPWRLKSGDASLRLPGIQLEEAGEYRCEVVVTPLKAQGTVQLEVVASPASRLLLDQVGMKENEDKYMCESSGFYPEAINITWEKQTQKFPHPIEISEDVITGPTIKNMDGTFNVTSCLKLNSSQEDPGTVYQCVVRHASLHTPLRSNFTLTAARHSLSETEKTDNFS
Kind of test: BLI; competition/epitope binning: antibodies coupled on activated ARG2G biosensors, first association with NKp30 3 min, second association 3 min with B7-H6 or the other NKp30 binders; both orientations, 25 C. Particulars: both partners purified.

B1: Recombinant human His-tagged ECD of NKp30 (receptor, UniProt O14931 19-135, looked up)
chain: LWVSQPPEIRTLEGSSAFLPCSFNASQGRLAIGSVTWFRDEVVPGKEVRNGTPEFRGRLAPLASSRFLHDHQAELHIRDVRGHDASIYVCRVEVLGLGVGTGNGTRLVVEKEHPQLG
notes: NKp30 (natural cytotoxicity triggering receptor 3), human, extracellular domain; supplier named under library sorting; also called rhNKp30; NKp30 His-tagged protein; source: bought: ACROBiosystems
For the molecule B1, the binding result is reported as “binds”.
